# Laboratory results as given in publication PMC2635961.
# B1: Sec10(145–827) (domain or fragment)
# chain: GDKLETAIKKKQNYIQSVELIRRYNDFYSMGKSDIVEQLRLSKNWKLNLKSVKLMKNLLILSSKLETSSIPKTINTKLVIEKYSEMMENELLENFNSAYRENNFTKLNEIAIILNNFNGGVNVIQSFINQHDYFIDTKQIDLENEFENVFIKNVKFKEQLIDFENHSVIIETSMQNLINDVETVIKNESKIVKRVFEEKATHVIQLFIQRVFAQKIEPRFEVLLRNSLSISNLAYVRILHGLFTLFGKFTKSLIDYFQLLEIDDSNQILSTTLEQCFADLFSHYLYDRSKYFGIEKRSLEAILVDMTSKFTVNYDKEINKRVLLDKYKEKLSTNVDAFMHSPRGNTHSRQDSTSRSKLSQFNSFLKTHLDKDHLSLNRTNTLSDSFNNSSSSTQYDVANNSSSLVNSSFTASDIDNSPNSPANYSLNDVDSMLKCVVESTARVMELIPNKAHLYILEILKIMFLGIVDSYMEIALEVAYWKICKVDINKTAGVVNLNFLKFISMSTEILDLLSISIKSIFLPLLNNSPEIKAQIIEMTNSQIQKMEILINIILQETITVISTKFSAILCKQKKKDFVPKSQELLDQDTLPAIEIVNILNLIFEQSSKFLKGKNLQTFLTLIGEELYGLLLSHYSHFQVNSIGGVVVTKDIIGYQTAIEDWGVASLIDKFATLRELANLFTVQP
# Molecular target: each recombinant exocyst subunit
# Experiment: pull-down; MBP or MBP-tagged proteins immobilised on amylose resin; equimolar purified Sec10(145–827) (1 µM) added; 10 mM HEPES pH 7, 100 mM NaCl, 0.1% NP-40, 1 mM DTT; 1 h at 4°C; three washes; Western blot with α-His5 and α-MBP
binder,measurement,value
B1,percent bound,10 to 20%
